These results are taken from CN113546252A.

The target in this assay is 人PCSK9-D347Y (human) (UniProt Q8NBP7). Kind of assay: cell-based or functional assay.

Substance Evolocumab (antibody) had a 促LDL内吞 (HepG2细胞LDL摄取法) EC50 of 0.151 µg/mL.

On to JS002 (antibody), for which the 促LDL内吞 (HepG2细胞LDL摄取法) EC50 is 0.0927 µg/mL.
